Experimental data taken from patent publication US20230312686A1 (Bristol-Myers Squibb, published 2023).
Numbering of substitutions follows the chain as printed. “And” between values parts separate entries of the source, which are not always exact repeats. Equal entries are not always repeated.

B1: ADX_6093_A01-961(DAR2) (designed binder)
10Fn3 domain: MGVSDVPRDLEVVAATPTSLLISWDAPAVTVRYYRITYGETGGNSPVQEFTVPGSKSTATISGLKPGVDYTITVYAVTGRGESPASSKPISINYRTPCPPPPPCHHHHHH
modifications: the two C-terminal cysteines each carry the tubulysin analog-linker of formula (IV) (Drug/linker (2x), DAR2)
notes: It is the DAR2 counterpart of m12
B2: ADX_6077_F02 DG→DA mutant, alkylated (designed binder)
chain: GVSDVPRDLEVVAATPTSLLISWSDDYHAHRYYRITYGETGGNSPVQEFTVPGEHVTATISGLKPGVDYTITVYAVTYDAEKAATDWSISINYRTPC
modifications: C-terminal cysteine alkylated
notes: also called P1-055660; PI-055660
B3: ADX_6077_F02 DG→DS mutant, alkylated (designed binder)
chain: B2 chain with A80S
modifications: C-terminal cysteine alkylated
notes: also called P1-055667
B4: ADX_6077_F02 DG→DV mutant, alkylated (designed binder)
chain: B2 chain with A80V
modifications: C-terminal cysteine alkylated
notes: also called P1-055672
B5: ADX_6077_F02 DG→DL mutant, alkylated (designed binder)
chain: B2 chain with A80L
modifications: C-terminal cysteine alkylated
notes: also called P1-055671
B6: ADX_6077_F02 DG→AG mutant, alkylated (designed binder)
chain: B2 chain with D79A, A80G
modifications: C-terminal cysteine alkylated
notes: also called P1-055669
B7: ADX_6077_F02 DG→EG mutant, alkylated (designed binder)
chain: B2 chain with D79E, A80G
modifications: C-terminal cysteine alkylated
notes: also called P1-055673
B8: ADX_6077_F02 DG→GG mutant, alkylated (designed binder)
chain: B2 chain with D79G, A80G
modifications: C-terminal cysteine alkylated
notes: also called P1-055670
B9: ADX_4606_F06 (designed binder)
chain: MGVSDVPRDLEVVAATPTSLLISWNSGHSGQYYRITYGETGGNSPVQEFTVPRYGYTATISGLKPGVDYTITVYAVAHSEASAPISINYRTEIDKPSQ
B10: ADX_5273_C01 (designed binder)
chain: MGVSDVPRDLEVVAATPTSLLISWSDPYEEERYYRITYGETGGNSPVQEFTVPAFHTTATISGLKPGVDYTITVYAVTYKHKYAYYYPPISINYRTEIDKPSQ
B11: ADX_5273_D01 (designed binder)
chain: MGVSDVPRDLEVVAATPTSLLISWEPSYKDDRYYRITYGETGGNSPVQEFTVPSFHQTATISGLKPGVDYTITVYAVTYEPDEYYFYYPISINYRTEIDKPSQ
B12: ADX_4578_B06 (designed binder)
chain: MGVSDVPRDLEVVAATPTSLLISWFPDRYVYYITYGETGGNSPVQEFTVEGHKQTAYISGLKPGVDYTITVYAIYYYPDDFQGYPQPISINYRTEGSGS
B13: ADX_6077_F02 DG→SG mutant, alkylated (designed binder)
chain: VSDVPRDLEVVAATPTSLLISWSDDYHAHRYYRITYGETGGNSPVQEFTVPGEHVTATISGLKPGVDYTITVYAVTYSGEKAATDWSISINYRTPC
modifications: C-terminal cysteine alkylated
notes: also called P1-055668
B14: ADX_4578_H08 (designed binder)
chain: MGVSDVPRDLEVVAATPTSLLISWSGYDYGDSYYRITYGETGGNSPVQEFTVPDGSNTATISGLKPGVDYTITVYAVEAYGKGYTRYTPISINYRTEIDKPSQ
B15: ADX_5274_E01 (designed binder)
chain: MGVSDVPRDLEVVAATPTSLLISWSGDYHPHRYYRITYGETGGNSPVQEFTVPGEHETATISGLKPGVDYTITVYAVTYDGEKADKYPPISINYRTEIDKPSQ
B16: ADX_4578_F03 (designed binder)
chain: MGVSDVPRDLEVVAATPTSLLISWHPPHPNIVSYHIYYGETGGNSPVQEFTVEGSKSTAKISGLKPGVDYTITVYAVAPEIEKYYQIWINYRTEGSGS
B17: 6077_F02-FITC (designed binder)
chain: MGVSDVPRDLEVVAATPTSLLISWSDDYHAHRYYRITYGETGGNSPVQEFTVPGEHVTATISGLKPGVDYTITVYAVTYDGEKAATDWSISINYRTPCHHHHHH
modifications: fluorescein-5-maleimide on the C-terminal cysteine
notes: also called FITC-labeled ADX_6077_F02
B18: 6077_F02.dPEG (designed binder)
chain: B17 chain
modifications: dPEG, site and size not stated
notes: The PEGylation is not described; also called PEGylated anti-GPC3 adnectin (dPEG)
B19: 6077_F02-PEG3.4 (designed binder)
chain: B17 chain
modifications: PEG3.4, site not stated
notes: The PEGylation is not described; also called PEGylated anti-GPC3 adnectin (PEG3.4)

Tests used:
[1] = biological target: T1, Human glypican-3 on cells (Huh7, Hep3B, H446, Hep3B xenograft tissue) (human, UniProt P51654 25-554); assay: flow cytometry on Hep3B cells, His Tag PE antibody
T1 construct: Endogenous GPC3 of human tumour cell lines; also called huGPC3 on cells; GPC3 receptor
T1 sequence (P51654 25-554 limits assumed): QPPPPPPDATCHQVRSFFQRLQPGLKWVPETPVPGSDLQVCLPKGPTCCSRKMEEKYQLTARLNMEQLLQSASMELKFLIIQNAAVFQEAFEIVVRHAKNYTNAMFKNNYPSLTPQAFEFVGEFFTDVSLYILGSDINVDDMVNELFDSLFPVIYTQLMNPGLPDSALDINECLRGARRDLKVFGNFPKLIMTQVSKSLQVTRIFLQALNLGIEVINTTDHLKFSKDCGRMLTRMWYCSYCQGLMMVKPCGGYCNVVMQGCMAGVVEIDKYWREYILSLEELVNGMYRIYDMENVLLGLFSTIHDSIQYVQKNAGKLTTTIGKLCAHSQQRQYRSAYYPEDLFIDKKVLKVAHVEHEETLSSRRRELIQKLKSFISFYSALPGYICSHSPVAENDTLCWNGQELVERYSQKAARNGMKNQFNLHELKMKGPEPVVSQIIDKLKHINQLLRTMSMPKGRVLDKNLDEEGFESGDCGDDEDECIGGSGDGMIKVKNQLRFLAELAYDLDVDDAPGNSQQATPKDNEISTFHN
Method: GPC3 AdxDC were evaluated by flow cytometry for binding to human Hep3B hepatocellular carcinoma cells grown in MEM with 10% FBS, and H446 small cell lung carcinoma cells grown in RPMI with 10% FBS. Cells were harvested using Cellstripper, a non-enzymatic cell dissociation solution from Mediatch (Corning: Manassas, VA 20109), Cat. #25-056-CL. Tumor cells (25,000/reaction) were suspended in FACS buffer (PBS+5% FBS+0.01% NaN₃) and mixed with a serial dilution of AdxDC for 1 hour on ice. Cells were washed three times with FACS buffer, and bound AdxDC was detected with His Tag PE-conjugated Antibody from R&D System, cat #IC050P, and read on a flow cytometer.

[2] = biological target: T2, Recombinant murine glypican-3 (aa 25-557), R&D Systems (murine, UniProt Q8CFZ4 25-557); assay: SPR 1-point off-rate, alkylated mutant vs parent
T2 construct: also called muGPC3; Mu GPC3-His
T2 sequence (Q8CFZ4 25-557 limits assumed, form in doubt): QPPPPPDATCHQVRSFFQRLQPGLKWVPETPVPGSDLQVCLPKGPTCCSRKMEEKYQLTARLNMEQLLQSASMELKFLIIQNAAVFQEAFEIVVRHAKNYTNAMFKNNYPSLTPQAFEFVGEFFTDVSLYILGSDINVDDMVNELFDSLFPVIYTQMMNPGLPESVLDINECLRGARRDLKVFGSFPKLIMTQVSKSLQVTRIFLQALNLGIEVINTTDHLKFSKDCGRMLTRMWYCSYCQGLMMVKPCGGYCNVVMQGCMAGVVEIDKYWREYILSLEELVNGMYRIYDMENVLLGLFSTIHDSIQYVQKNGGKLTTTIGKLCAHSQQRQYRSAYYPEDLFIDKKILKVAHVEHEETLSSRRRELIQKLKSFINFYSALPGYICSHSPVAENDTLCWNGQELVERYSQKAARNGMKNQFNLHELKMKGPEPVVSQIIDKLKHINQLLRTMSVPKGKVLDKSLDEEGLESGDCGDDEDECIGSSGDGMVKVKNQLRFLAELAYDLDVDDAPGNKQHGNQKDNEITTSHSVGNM

[3] = biological target: T3, Recombinant human glypican-3 (aa 1-559), His-tagged, R&D Systems (human, UniProt P51654 25-559); assay: SPR 1-point off-rate, alkylated mutant vs parent
T3 construct: also called huGPC3; Hu GPC3-His
T3 sequence (P51654 other isoform, or with tags, fused parts or gaps): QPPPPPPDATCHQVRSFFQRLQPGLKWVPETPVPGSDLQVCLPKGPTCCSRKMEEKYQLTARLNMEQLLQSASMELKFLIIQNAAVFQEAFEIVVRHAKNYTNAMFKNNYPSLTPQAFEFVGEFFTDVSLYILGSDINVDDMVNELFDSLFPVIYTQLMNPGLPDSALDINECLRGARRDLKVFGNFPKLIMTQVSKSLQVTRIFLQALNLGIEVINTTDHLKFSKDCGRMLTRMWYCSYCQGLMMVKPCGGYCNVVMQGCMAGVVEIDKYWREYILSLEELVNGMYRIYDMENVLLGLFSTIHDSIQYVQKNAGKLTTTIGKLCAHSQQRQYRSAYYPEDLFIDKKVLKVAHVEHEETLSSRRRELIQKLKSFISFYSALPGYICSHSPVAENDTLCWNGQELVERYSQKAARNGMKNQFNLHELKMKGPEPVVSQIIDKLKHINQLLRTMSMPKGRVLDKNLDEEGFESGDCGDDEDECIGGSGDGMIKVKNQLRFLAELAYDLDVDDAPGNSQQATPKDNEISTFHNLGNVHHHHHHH

[4] = biological target: T1, Human glypican-3 on cells (Huh7, Hep3B, …); assay: flow cytometry on Huh7 cells
Method: The binding of DG variants to huGPC3 in DG GPC3 AdxDCs mutants were evaluated by flow cytometry for binding to Huh7 carcinoma cells grown in DMEM media with 10% FBS. Cells were harvested using Versene, an EDTA cell dissociation solution from Lonza, Cat. #17-711E. Tumor cells (1E5 cells/reaction) were suspended in FACS buffer (PBS, 1% BSA, 0.05% Na Azide) and mixed with a serial dilution of AdxDC for one hour on ice. Cells were washed three times with FACS buffer, and bound AdxDC was detected with an in house anti-scaffold monoclonal Ab and PE-conjugated Antibody from (RnD Systems), cat #NL007, and read on a flow cytometer.

[5] = biological target: T2, Recombinant murine glypican-3 (aa …); assay: SPR, Biacore T100, GPC3-His immobilised, 1:1 fit
Method: (§1) The binding affinities of the alkylated GPC3 DG mutant adnectins for human and murine GPC3 were further evaluated by Biacore T100 using HBS-P+ running buffer with direct immobilization of human and mouse GPC3 proteins [Hu (Fc 2,3) and Mu (Fc 4) GPC3-His (R&D Systems)] with a 200-1.56 nM series injected for 180s association, 600s dissociation.

[6] = biological target: T3, Recombinant human glypican-3 (aa …); assay: SPR, Biacore T100, GPC3-His immobilised, 1:1 fit
Method: as §1

[7] = biological target: T4, Human glypican-3, recombinant, construct not stated (human, UniProt P51654 25-559, limits assumed, biotin in the positional scanning (site not stated)); assay: ELISA, recombinant GPC3
T4 construct: also called recombinant GPC3; human GPC3
T4 sequence (P51654 25-559 limits assumed): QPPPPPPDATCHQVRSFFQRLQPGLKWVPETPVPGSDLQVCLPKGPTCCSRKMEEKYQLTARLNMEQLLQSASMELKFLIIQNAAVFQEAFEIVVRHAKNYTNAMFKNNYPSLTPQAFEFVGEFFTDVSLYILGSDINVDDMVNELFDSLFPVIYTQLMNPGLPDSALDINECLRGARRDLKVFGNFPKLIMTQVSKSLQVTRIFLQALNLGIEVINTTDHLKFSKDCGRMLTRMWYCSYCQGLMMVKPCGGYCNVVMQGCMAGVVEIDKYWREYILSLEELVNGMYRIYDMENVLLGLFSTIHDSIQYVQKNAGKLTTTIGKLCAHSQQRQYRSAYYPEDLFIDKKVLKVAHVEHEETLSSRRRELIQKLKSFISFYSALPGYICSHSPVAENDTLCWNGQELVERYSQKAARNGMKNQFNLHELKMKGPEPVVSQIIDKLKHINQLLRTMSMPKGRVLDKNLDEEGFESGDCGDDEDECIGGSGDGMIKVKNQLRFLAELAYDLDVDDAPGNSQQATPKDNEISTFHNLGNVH

[8] = biological target: T2, Recombinant murine glypican-3 (aa …); assay: SPR, as in the previous Examples
Method: (§2) For off-rate measurements, single 200 nM adnectin/AdxDC concentrations were injected using identical conditions. One 30s injection of 10 mM glycine pH 1.7 was used to remove bound adnectin and regenerate the GPC3 surfaces between assay cycles.
(§3) Rate constants kₐ (kₒₙ) and kd (koff) were derived from reference-subtracted sensorgrams fit to a 1:1 binding model in Biacore T100 Evaluation Software v2.0.4 (GE Healthcare). The affinity constant, KD was calculated from the ratio of rate constants kd/kₐ.
(§4) FITC Labeling: ADX_6077_F02 and non-binding control Adnectin were reduced with DTT or TCEP followed by G25 gel filtration chromatography or dialysis. Excess Fluorescein-5-maleimide reagent (Thermo Scientific) was then added and the mixture incubated at room temperature for approximately 2 hours followed by G25 gel filtration chromatography or extensive dialysis (3-4 buffer changes). The resulting degree of labeling was measured by absorbance following the manufacturer's instructions and/or by mass spectrometry. The binding affinities of FITC-labeled and PEGylated […] for human and murine GPC3 was evaluated as described in the previous Examples, and the results are summarized in Table 13.

[9] = biological target: T3, Recombinant human glypican-3 (aa …); assay: SPR, as in the previous Examples
Method: as §2, §3, §4

Row | Binder | muGPC3 koff (mut/par) [2] [fold] | huGPC3 koff (mut/par) [3] [fold] | huGPC3 on cells EC50 (mutant/parent) [4] [fold] | Fold affinity (KD) difference vs alkylated parent [5] [fold] | Kd [5] [nM] | koff [5] [s⁻¹] | kon [5] [M⁻¹ s⁻¹] | Fold affinity (KD) difference vs alkylated parent [6] [fold] | Kd [6] [nM] | koff [6] [s⁻¹] | kon [6] [M⁻¹ s⁻¹] | ELISA OD [7] [OD] | other results
1 | B1 |  |  |  |  |  |  |  |  |  |  |  |  | binding result [1]: no binding (tested: about 30 nM)
2 | B2 | 3.7 | 3.9 | 1.3 | 4.3 | 16 | 0.0017 | 100000 | 4.5 | 25.4 | 0.00183 | 72200 |  | 
3 | B3 | 3.3 | 3.5 | 1.4 | 3.9 | 15 | 0.0015 | 100000 | 4.2 | 23.3 | 0.00166 | 71600 |  | 
4 | B4 | 7 | 7.9 |  | 7.8 | 30 | 0.0025 | 85000 | 7.8 | 43.5 | 0.00309 | 71000 |  | 
5 | B5 | 3.1 | 3.6 | 1.7 | 3.8 | 15 | 0.0015 | 100000 | 3.9 | 21.9 | 0.00159 | 72600 |  | 
6 | B6 | 5.5 | 5.9 | 1.1 | 4 | 15 | 0.0021 | 140000 | 4.2 | 23.7 | 0.00243 | 103000 |  | 
7 | B7 | 5.1 | 5.4 | 1.6 | 5.1 | 19 | 0.0021 | 110000 | 5.3 | 30 | 0.00229 | 76300 |  | 
8 | B8 | 12 | 14 |  |  |  |  |  |  |  |  |  |  | 
9 | B9 |  |  |  |  |  |  |  |  |  |  |  | 1.73 | 
10 | B10 |  |  |  |  |  |  |  |  |  |  |  | 1.35 | 
11 | B11 |  |  |  |  |  |  |  |  |  |  |  | 2.1 | 
12 | B12 |  |  |  |  |  |  |  |  |  |  |  | 0.17 | 
13 | B13 | 4.8 | 5.2 | 1.1 | 4.1 | 16 | 0.002 | 130000 | 4.2 | 23.5 | 0.00221 | 94000 |  | 
14 | B14 |  |  |  |  |  |  |  |  |  |  |  | 1.02 | 
15 | B15 |  |  |  |  |  |  |  |  |  |  |  | 2.37 | 
16 | B16 |  |  |  |  |  |  |  |  |  |  |  | 0.6 | 
17 | B17 |  |  |  |  |  |  |  |  |  |  |  |  | Kd [8]: 3.97 nM; koff [8]: 0.000446 s⁻¹; kon [8]: 112000 M⁻¹ s⁻¹; Kd [9]: 6.11 nM; koff [9]: 0.000498 s⁻¹; kon [9]: 81500 M⁻¹ s⁻¹
18 | B18 |  |  |  |  |  |  |  |  |  |  |  |  | Kd [8]: 5.43 nM and 5.26 nM; koff [8]: 0.000559 s⁻¹ and 0.000557 s⁻¹; kon [8]: 103000 M⁻¹ s⁻¹ and 106000 M⁻¹ s⁻¹; Kd [9]: 8.19 nM and 8.1 nM; koff [9]: 0.000602 s⁻¹ and 0.000607 s⁻¹; kon [9]: 73500 M⁻¹ s⁻¹ and 75000 M⁻¹ s⁻¹
19 | B19 |  |  |  |  |  |  |  |  |  |  |  |  | Kd [8]: 5.12 nM; koff [8]: 0.000523 s⁻¹; kon [8]: 102000 M⁻¹ s⁻¹; Kd [9]: 8.14 nM; koff [9]: 0.000584 s⁻¹; kon [9]: 71800 M⁻¹ s⁻¹
